These results are taken from patent publication US20140161732A1 (published 2014).

Bridge positions count the residues as written; N and C are the ends.

In the experiment the target is KDR on human umbilical vein endothelial cells (HUVECs) (human, UniProt P35968 20-1356). Nature of the experiment: cell-based or functional assay.
Chain of KDR on human umbilical vein endothelial cells (HUVECs) (P35968 20-1356): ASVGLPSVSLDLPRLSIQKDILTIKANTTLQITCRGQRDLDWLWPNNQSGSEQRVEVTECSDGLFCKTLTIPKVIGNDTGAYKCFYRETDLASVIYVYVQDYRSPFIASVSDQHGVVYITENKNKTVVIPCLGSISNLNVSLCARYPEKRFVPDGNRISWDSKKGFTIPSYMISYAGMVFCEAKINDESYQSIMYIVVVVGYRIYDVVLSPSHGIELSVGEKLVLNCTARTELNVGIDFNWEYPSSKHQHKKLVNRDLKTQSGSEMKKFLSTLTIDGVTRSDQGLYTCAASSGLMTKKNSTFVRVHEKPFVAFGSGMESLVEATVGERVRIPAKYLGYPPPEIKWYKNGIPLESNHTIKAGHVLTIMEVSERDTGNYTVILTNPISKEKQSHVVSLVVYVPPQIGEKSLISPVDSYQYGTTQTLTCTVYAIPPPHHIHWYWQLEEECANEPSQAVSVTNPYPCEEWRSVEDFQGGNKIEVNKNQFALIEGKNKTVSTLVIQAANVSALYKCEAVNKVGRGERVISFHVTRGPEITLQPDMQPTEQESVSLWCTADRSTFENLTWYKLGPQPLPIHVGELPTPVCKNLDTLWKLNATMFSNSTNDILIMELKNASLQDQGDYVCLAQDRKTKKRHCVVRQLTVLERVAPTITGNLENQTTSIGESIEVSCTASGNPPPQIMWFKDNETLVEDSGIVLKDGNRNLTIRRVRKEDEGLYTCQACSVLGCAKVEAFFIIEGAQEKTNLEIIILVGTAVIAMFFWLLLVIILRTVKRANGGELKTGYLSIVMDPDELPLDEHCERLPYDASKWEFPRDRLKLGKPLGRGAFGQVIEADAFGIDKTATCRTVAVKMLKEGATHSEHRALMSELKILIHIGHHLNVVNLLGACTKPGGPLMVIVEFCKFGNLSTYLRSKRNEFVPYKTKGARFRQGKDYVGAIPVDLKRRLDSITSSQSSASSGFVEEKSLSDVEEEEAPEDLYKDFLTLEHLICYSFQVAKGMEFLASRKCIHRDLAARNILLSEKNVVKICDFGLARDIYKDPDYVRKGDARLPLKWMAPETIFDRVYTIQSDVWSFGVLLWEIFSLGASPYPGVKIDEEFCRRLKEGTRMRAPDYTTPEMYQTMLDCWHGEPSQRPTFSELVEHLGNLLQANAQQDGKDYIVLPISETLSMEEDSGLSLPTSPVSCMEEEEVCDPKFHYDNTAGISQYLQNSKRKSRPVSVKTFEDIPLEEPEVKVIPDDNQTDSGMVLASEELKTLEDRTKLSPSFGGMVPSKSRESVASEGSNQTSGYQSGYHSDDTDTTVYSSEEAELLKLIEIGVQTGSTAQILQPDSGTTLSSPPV

B1: SEQ ID NO:269 (peptide)
peptide: Ac-AGWIECYHPDGICYHFGTGGGK-NH2
modifications: disulfide 6-13 (inferred); also: fluorescein on C-terminal Lys in anisotropy assay only
As to B1, the “VEGF-induced KDR phosphorylation in HUVECs (immunoblot)” value is not below 50 % inhibition at 10 µM.

B2: SEQ ID NO:294 (peptide)
peptide: Ac-GDSRVCWEDSWGGEVCFRYDPGGGK-NH2
modifications: disulfide 6-16 (inferred); also: fluorescein on C-terminal Lys in anisotropy assay only
As to B2, the “VEGF-induced KDR phosphorylation in HUVECs (immunoblot)” value is not below 50 % inhibition at 10 µM.
